What was measured:
human FcγRIIa type R = target: T1, human FcγRIIa type R (human, UniProt P12318 36-217); test: SPR (Biacore), antibody captured on Protein A chip, FcγR as analyte, 25 C, method of Example 14
T1 construct: also called FcγRIIaR; FcγRIIa(R)
T1 chain: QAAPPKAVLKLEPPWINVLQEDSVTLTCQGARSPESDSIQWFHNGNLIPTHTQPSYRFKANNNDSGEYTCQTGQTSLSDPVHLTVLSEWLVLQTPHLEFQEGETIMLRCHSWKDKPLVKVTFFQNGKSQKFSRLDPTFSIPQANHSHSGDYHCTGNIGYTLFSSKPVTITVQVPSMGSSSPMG
Experimental: (§1) Next, interaction between these antibodies and FcγR was analyzed kinetically using the BIACORE™ T100 (GE Healthcare). The interaction was measured at a temperature of 25° C. using HBS-EP+ (GE Healthcare) for the running buffer. The Series S Sensor Chip CM5 (GE Healthcare) was used after immobilizing Protein A by amine coupling. […] Antibody captured on the chip was washed by allowing 10 mM glycine-HCl (pH 1.5) to react following measurement. The chip regenerated in this manner was used repeatedly. The dissociation constant KD (mol/L) was calculated from the association rate constant ka (L/mol/s) and dissociation rate constant kd (1/s) as calculated by global-fitting the measurement results with a 1:1 Langmuir binding model using the BIACORE™ Evaluation Software.
(§2) Furthermore, KD(IIaR)/KD(IIb) and KD(IIaH)/KD(IIb) in the table respectively represent the value obtained by dividing the KD value of each variant for FcγRIIaR by the KD value of each variant for FcγRIIb, and the value obtained by dividing the KD value of each variant for FcγRIIaH by the KD value of each variant for FcγRIIb.

human FcγRIIb [1] = target: T2, human FcγRIIb (human, UniProt P31994 43-217, limits assumed); test: as above
T2 construct: Whole entry (AAI46679.1); also called FcγIIB; FcgRIIb
T2 sequence: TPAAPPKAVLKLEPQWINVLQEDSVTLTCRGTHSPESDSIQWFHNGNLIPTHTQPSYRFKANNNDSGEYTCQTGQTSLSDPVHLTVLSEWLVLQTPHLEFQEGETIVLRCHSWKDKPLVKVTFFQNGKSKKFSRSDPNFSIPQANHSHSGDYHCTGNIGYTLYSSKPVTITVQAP
Experimental: as §1, §2

[2] = target: T3, human FcγRIIa(R) (allotype R131) (human, UniProt P12318 36-217); test: SPR (Biacore T100), ratio of the KD values of Table 24
T3 construct: Soluble analyte in SPR; also called hFcgRIIa(R); FcgRIIaR
T3 chain: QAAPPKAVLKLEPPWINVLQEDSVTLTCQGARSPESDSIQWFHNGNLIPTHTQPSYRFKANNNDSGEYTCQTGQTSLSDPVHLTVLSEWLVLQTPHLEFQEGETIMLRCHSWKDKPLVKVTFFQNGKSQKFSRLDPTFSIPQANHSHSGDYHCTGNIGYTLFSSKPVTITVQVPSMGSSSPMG
Experimental: as §1

human FcγRIIb [3] = target: T4, human FcγRIIb (human, UniProt P31994 43-217, limits assumed); test: as above
T4 construct: Soluble analyte in SPR; also called hFcgRIIb; FcgRIIb
T4 sequence: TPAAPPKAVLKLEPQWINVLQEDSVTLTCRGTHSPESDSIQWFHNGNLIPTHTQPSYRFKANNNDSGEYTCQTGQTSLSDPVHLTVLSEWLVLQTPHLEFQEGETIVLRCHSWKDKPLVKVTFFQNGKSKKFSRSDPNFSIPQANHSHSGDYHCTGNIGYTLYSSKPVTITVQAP
Experimental: as §1

human FcγRIa = target: T5, human FcγRIa (human, UniProt P12314 16-292, limits assumed); test: as above
T5 construct: Soluble analyte in SPR; also called hFcgRIa; FcgRIa
T5 sequence (P12314 16-292 limits assumed): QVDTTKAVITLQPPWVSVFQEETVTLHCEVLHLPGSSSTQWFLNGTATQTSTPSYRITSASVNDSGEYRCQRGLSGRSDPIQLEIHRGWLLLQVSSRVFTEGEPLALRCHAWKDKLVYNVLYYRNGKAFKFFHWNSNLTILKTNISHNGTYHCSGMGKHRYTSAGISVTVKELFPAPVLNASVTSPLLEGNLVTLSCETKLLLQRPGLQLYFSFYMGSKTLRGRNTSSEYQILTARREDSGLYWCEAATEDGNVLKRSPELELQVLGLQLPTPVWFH
Experimental: as §1

[4] = target: T6, human FcγRIIa(H) (allotype H131) (human, UniProt P12318 36-217); test: as above
T6 construct: Soluble analyte in SPR; also called hFcgRIIa(H); FcgRIIaH
T6 sequence: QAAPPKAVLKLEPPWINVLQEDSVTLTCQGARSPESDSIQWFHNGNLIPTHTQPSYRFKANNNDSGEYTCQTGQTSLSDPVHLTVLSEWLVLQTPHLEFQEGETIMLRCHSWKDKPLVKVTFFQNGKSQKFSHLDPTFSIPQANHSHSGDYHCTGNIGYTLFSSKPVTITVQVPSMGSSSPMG
Experimental: as §1

| Binder | Kd (human FcγRIIa type R) [µM] | Kd (human FcγRIIb [1]) [µM] | relative KD (KD of IgG1 / KD of the variant) [2] [fold] | relative KD (KD of IgG1 / KD of the variant) (human FcγRIIb [3]) [fold] | relative KD (KD of IgG1 / KD of the variant) (human FcγRIa) [fold] | relative KD (KD of IgG1 / KD of the variant) [4] [fold] |
| --- | --- | --- | --- | --- | --- | --- |
| IL6R-BP146/IL6R-L (antibody, human IgG1, name in EU numbering, Alterations introduced into IL6R-B3 (EU numbering)) heavy: QVQLQESGPGLVKPSETLSLTCAVSGHSISHDHAWSWVRQPPGEGLEWIGFISYSGITNYNPSLQGRVTISRDNSKNTLYLQMNSLRAEDTAVYYCARSLARTTAMDYWGEGTLVTVSSASTKGPSVFPLAPSSKSTSGGTAALGCLVKDYFPEPVTVSWNSGALTSGVHTFPAVLQSSGLYSLSSVVTVPSSSLGTQTYICNVNHKPSNTKVDKKVEPKSCDKTHTCPPCPAPEYLGDDSVFLFPPKPKDTLMISRTPEVTCVVVDVSHEDPEVKFNWYVDGVEVHNAKTKPREEQYNSTYRVVSVLTVLHQDWLNGKEYKCKVSNAALPAPIEKTISKAKGQPREPQVYTLPPSRDELTKNQVSLTCLVKGFYPSDIAVEWESNGQPENNYKTTPPVLDSDGSFFLYSKLTVDKSRWQQGNVFSCSVMHEALHNHYTQESLSLSP light: DIQMTQSPSSLSASVGDRVTITCRASQDISSYLNWYQQKPGKAPKLLIYYTSRLHSGVPSRFSGSGSGTDFTFTISSLQPEDIATYYCQQGNTLPYTFGQGTKVEIK | 21 | – | – | – | – | – |
| IL6R-G1d/IL6R-L (antibody, human IgG1, Anti-human IL-6 receptor IgG1, G1d constant region; also called IgG1) heavy: not shown light: DIQMTQSPSSLSASVGDRVTITCRASQDISSYLNWYQQKPGKAPKLLIYYTSRLHSGVPSRFSGSGSGTDFTFTISSLQPEDIATYYCQQGNTLPYTFGQGTKVEIK | 10 | 26 | – | – | – | – |
| IL6R-BF648/IL6R-L (antibody, human IgG1, name in EU numbering, Alteration introduced into IL6R-B3; positions in EU numbering) heavy: not shown light: DIQMTQSPSSLSASVGDRVTITCRASQDISSYLNWYQQKPGKAPKLLIYYTSRLHSGVPSRFSGSGSGTDFTFTISSLQPEDIATYYCQQGNTLPYTFGQGTKVEIK | – | 12 | – | – | – | – |
| IgG1-v3 (antibody containing IL6R-G1d_v3 as H chain and IL6R-L as L chain) (antibody, IL6R-G1d with S267E/L328F (EU numbering); also called S267E/L328F) heavy: not shown light: DIQMTQSPSSLSASVGDRVTITCRASQDISSYLNWYQQKPGKAPKLLIYYTSRLHSGVPSRFSGSGSGTDFTFTISSLQPEDIATYYCQQGNTLPYTFGQGTKVEIK | – | – | 522 | 408 | 1.8 | 0.51 |
| IgG1-v2 (antibody containing IL6R-G1d_v2 as H chain and IL6R-L as L chain) (antibody, IL6R-G1d with L328E (EU numbering); also called L328E) heavy: not shown light: DIQMTQSPSSLSASVGDRVTITCRASQDISSYLNWYQQKPGKAPKLLIYYTSRLHSGVPSRFSGSGSGTDFTFTISSLQPEDIATYYCQQGNTLPYTFGQGTKVEIK | – | – | 0.41 | 2.3 | 0.74 | 0.064 |
| IL6R-2B261/IL6R-L (antibody, human IgG1, name in EU numbering, Alterations introduced into IL6R-B3 (EU numbering)) heavy: QVQLQESGPGLVKPSETLSLTCAVSGHSISHDHAWSWVRQPPGEGLEWIGFISYSGITNYNPSLQGRVTISRDNSKNTLYLQMNSLRAEDTAVYYCARSLARTTAMDYWGEGTLVTVSSASTKGPSVFPLAPSSKSTSGGTAALGCLVKDYFPEPVTVSWNSGALTSGVHTFPAVLQSSGLYSLSSVVTVPSSSLGTQTYICNVNHKPSNTKVDKKVEPKSCDKTHTCPPCPAPDLLGGDSVFLFPPKPKDTLMISRTPEVTCVVVDVSHEDPEVKFNWYVDGVEVHNAKTKPREEQDNSTYRVVSVLTVLHQDWLNGKEYKCKVSNKALPAPIEKTISKAKGQPREPQVYTLPPSRDELTKNQVSLTCLVKGFYPSDIAVEWESNGQPENNYKTTPPVLDSDGSFFLYSKLTVDKSRWQQGNVFSCSVMHEALHNHYTQESLSLSP light: DIQMTQSPSSLSASVGDRVTITCRASQDISSYLNWYQQKPGKAPKLLIYYTSRLHSGVPSRFSGSGSGTDFTFTISSLQPEDIATYYCQQGNTLPYTFGQGTKVEIK | – | 10 | – | – | – | – |
